Data set [1] deals with T1, Complement C1q (UniProt P02745;P02746;P02747 P02745:23-245,P02746:28-253,P02747:29-245). Briefly: filter; above background at 0.1 and 0.5 nM C1q. As to conditions: tags: Quidel; chain copies: 6.
The target of data set [2] is T2, Complement C5 (Homo sapiens, UniProt P01031;P01031 P01031:19-673,P01031:678-1676). The data set can be described thus: filter; MgPBS 37C. As to conditions: tags: Quidel. As to the method: (§1) Individual cloned DNA was T7 transcribed with α-[³²P]-ATP and the full length [³²P]-2′-NH₂-RNA or 2′-F-RNA was gel-purified (as above). RNA was suspended at approximately 5,000 cpm per 30 μL sample (<10 pM), and aliquots were incubated with various concentrations of C1q, C3 or C5 in MgPBS for 10 minutes at 37° C. Samples were then filtered through nitrocellulose, the filters washed with buffer and dried under an infrared lamp, and counted with addition of scintillation fluid (Ecoscint A, National Diagnostics, Atlanta, Ga.). A background sample of RNA alone was run in parallel. […] Filters were washed and counted.
(§2) Sequences were grouped according to homology and function.

The target of data set [3] is T2, Complement C5. The data set can be described thus: filter; Group I affinities stated very similar. As to conditions: tags: Quidel. How it is done: as §1, §2
The target of data set [4] is T1, Complement C1q. Briefly: filter; MgPBS 37C. As to conditions: tags: Quidel; chain copies: 6. As to the method: as §1
For data set [5], the target named is T1, Complement C1q. Briefly: filter; above background; SEQ 13 in listing differs from Table 2 near the 3' end. As to conditions: tags: Quidel; chain copies: 6.
Data set [6] deals with T2, Complement C5. Briefly: filter; minimal binding truncate. As to conditions: tags: Quidel; stem-loop with UUU bulge. How it is done:
as §1

Data set [7] addresses T2, Complement C5. Briefly: filter. As to conditions: tags: Quidel.
In data set [8] the target is T2, Complement C5. The data set can be described thus: filter; reduced binding. As to conditions: tags: Quidel.
Data set [9] addresses T1, Complement C1q. Briefly: filter; MgPBS 37C; SEQ 12 in listing differs from Table 2 near the 3' end. As to conditions: tags: Quidel; chain copies: 6. How it is done: as §1
Data set [10] has as its target T2, Complement C5. Briefly: filter; >10-fold over background at 100 and 10 nM C5; 2'-OMe interference. As to conditions: tags: Quidel. The source says:
The partially substituted 2′-OMe oligonucleotides were 5′-[³²P] -kinase-labeled. […] The oligonucleotides were eluted from the protein, alkaline hydrolyzed and then run on a 20% acrylamide/7 M urea/TBE sequencing gel. On adjacent tracks were run oligonucleotides not selected with C5. Band intensities were quantitated with on an Instantlmager (Packard, Meriden, Conn.).

For data set [11], the target named is T1, Complement C1q. The data set can be described thus: FP; nitrocellulose filter binding, MgPBS 37C. As to conditions: tags: Quidel; chain copies: 6. How it is done: as §1

Changes are numbered by the printed parent chain.

The record followed here is patent publication US20030078221, “High affinity nucleic acid ligands of complement system proteins” (Gilead Sciences, Inc., published 2003).

T1 sequence (P02745 23-245, chain 1 of 3): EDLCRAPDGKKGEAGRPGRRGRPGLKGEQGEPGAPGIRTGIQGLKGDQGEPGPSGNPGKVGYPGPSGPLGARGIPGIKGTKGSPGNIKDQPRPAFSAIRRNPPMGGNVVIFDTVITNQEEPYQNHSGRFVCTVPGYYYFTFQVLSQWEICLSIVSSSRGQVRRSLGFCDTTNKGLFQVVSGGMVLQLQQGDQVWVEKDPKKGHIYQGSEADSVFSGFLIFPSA
T1 sequence (P02746 28-253, chain 2 of 3): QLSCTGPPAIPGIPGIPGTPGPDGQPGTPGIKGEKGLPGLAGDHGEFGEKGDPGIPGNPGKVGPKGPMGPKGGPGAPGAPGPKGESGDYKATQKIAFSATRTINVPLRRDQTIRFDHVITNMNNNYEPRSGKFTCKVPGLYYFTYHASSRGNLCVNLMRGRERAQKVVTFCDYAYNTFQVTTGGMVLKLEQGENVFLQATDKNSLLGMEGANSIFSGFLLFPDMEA
T1 sequence (P02747 29-245, chain 3 of 3): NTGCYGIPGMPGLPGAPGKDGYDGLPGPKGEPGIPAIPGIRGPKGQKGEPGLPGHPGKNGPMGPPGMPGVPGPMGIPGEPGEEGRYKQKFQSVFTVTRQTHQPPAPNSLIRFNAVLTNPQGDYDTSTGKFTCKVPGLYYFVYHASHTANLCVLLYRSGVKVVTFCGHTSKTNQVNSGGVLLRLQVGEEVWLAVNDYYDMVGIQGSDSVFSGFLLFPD

B1: C1q clone 23c (ssRNA)
RNA: GGGAGGACGAUGCAAGUGGAGUGGAGGUAUAACGGCCGGUAGGCAUCCCACUCGGGCCUAGCUCAGACGACUCGCCCGA
modifications: 2'-NH2 pyrimidines
As to B1, the binding result with Complement C1q [1] is “binds”.

B2: F8 (ssRNA)
RNA: GGGAGGACGAUGCGGUCUCAUGCGCCGAGUGUGAGUUUACCUUCGUCAGACGACUCGCCCGA
modifications: 2'-F pyrimidines
One may read the Kd as the constant that tells how readily two partners part at equilibrium. A high value points to weaker binding. On to B2, for which the Kd with Complement C5 [2] turned out to be 30 nM.

B3: G7 (ssRNA)
RNA: B2 RNA with C19G, A20C, G22A, C26U, U32G, G33C, A34U
modifications: 2'-F pyrimidines
B3: in the data set with Complement C5 [3], the binding result is recorded as “binds”.

B4: K7 (ssRNA)
RNA: B2 RNA with C25U, C40A, U43G
modifications: 2'-F pyrimidines
For the molecule B4, the binding result in the data set with Complement C5 [3] is “binds”.

B5: H1 (ssRNA)
RNA: B2 RNA with U18G, C19G, G31C, G33C, A34C
modifications: 2'-F pyrimidines
On to B5, for which the binding result with Complement C5 [3] was “binds”.

B6: C1q clone 30 (ssRNA)
RNA: GGGAGGACGAUGCGGGUGGAGUGGGGAUCAUACGGCUGGUAGCACGAGCUCCCUAACAGCGGUCAGACGACUCGCCCGA
modifications: 2'-NH2 pyrimidines
Turning to B6, the binding result in the data set with Complement C1q [1] is on record as “binds”.

B7: C1q clone 45 (ssRNA)
RNA: GGGAGGACGAUGCGGUGGAGUGGAGGUAUACCGGCCGGUAGCGCAUCCCACUCGGGUCUGUGCUCAGACGACUCGCCCGA
modifications: 2'-NH2 pyrimidines
Molecule B7 came in with a Kd with Complement C1q [4] of 1.38 nM.

B8: C1q clone 40 (ssRNA)
RNA: GGGAGGACGAUGCGGCUGGUAGCAUGUGCAUUGAUGGGAGGAGUGGAGGUCACCGUCAACCGUCAGACGACUCGCCCGA
modifications: 2'-NH2 pyrimidines
On to B8, for which the binding result in the data set with Complement C1q [1] is listed as “binds”.

B9: C9 (ssRNA)
RNA: GGGAGGACGAUGCGGUGAGCGUGUAAAACGGUUUCGAUAGAGCCUCAGACGACUCGCCCGA
modifications: 2'-F pyrimidines
As for B9, the Kd with Complement C5 [2] was found to be 45 nM.

B10: C1q clone 14 (ssRNA)
RNA: GGGAGGACGAUGCGGCACCUCACCUCCAUAUUGCCGGUUAUCGCGUAGGGUGAGCCCAGACACGACAGACGACUCGCCCGA
modifications: 2'-NH2 pyrimidines
Molecule B10 came in with a Kd with Complement C1q [4] of 2.4 nM.

B11: C1q clone 78 (ssRNA)
RNA: GGGAGGACGAUGCGGGUGGAGUGGAGGGUAAACAAUGGCUGGUGGCAUUCGGAAUCUCCCAACGUAGACGACUCGCCCGA
modifications: 2'-NH2 pyrimidines
Regarding B11, the binding result with Complement C1q [5] is “binds”.
Molecule GGGAGGAGGAUCGGUGUUCAGCAUUCAGAUCUUCAGACGACUCGCCCGA (ssRNA, 2'-F pyrimidines) [E4c] had a Kd in the data set with Complement C5 [2] of 50 nM.

B12: C1q clone 33 (ssRNA)
RNA: GGGAGGACGAUGCGGGUUGCUGGUAGCCUGAUGUGGGUGGAGUGAGUGGAGGGUUGAAAAAUGCAGACGACUCGCCCGA
modifications: 2'-NH2 pyrimidines
In turn, B12 returned a Kd with Complement C1q [4] of 3.85 nM.
CGAUGCGGUCUCAUGCGUCGAGUGUGAGUUUACCUUCG (ssRNA, 2'-F pyrimidines) [C6 38mer truncate] yielded a Kd with Complement C5 [6] of 20 nM.

B13: YL-79 (ssRNA)
RNA: GGGAGAUAAGAAUAAACGCUCAAGAACCACGCGGUCUCAGGCGUAGAGUCUGAGUUUACCUUGGUUUUCGACAGGAGGCUCACAACAGGC
modifications: 2'-F pyrimidines
In the data set with Complement C5 [7], B13 displayed a dissociation constant Kd of 15 nM.

B14: YL-13 (ssRNA)
RNA: B13 RNA with A25G, C28G, A29C, U44C, A45U, U62G, G63C, U66C
modifications: 2'-F pyrimidines
For the molecule B14, the affinity in the data set with Complement C5 [7], expressed as Kd, was 6 nM.
In the data set with Complement C5 [8], GAUGCGGUCUCAUGCGUCGAGUGUGAGUUUACCUUC (ssRNA, 2'-F pyrimidines) [C6 36mer truncate] returned an equilibrium dissociation constant (Kd) of 50 nM.

B15: YL-56 (ssRNA)
RNA: GGGAGAUAAGAAUAAACGCUCAAGGUACACGCGGUCUGACGCGCUGAGUGUCAGUUUACCUUGUACUUCGACAGGAGGCUCACAACAGGC
modifications: 2'-F pyrimidines
In turn, B15 gave a Kd in the data set with Complement C5 [7] of 12 nM.

B16: C1q clone 3 (ssRNA)
RNA: GGGAGGACGAUGCGGGAGGAGUGGAGGUAAACAAUAGGUCGGUAGCGACUCCCACUAACAGGCCUCAGACGACUCGCCCGA
modifications: 2'-NH2 pyrimidines
As to B16, the binding result in the data set with Complement C1q [1] is reported as “binds”.

B17: C1q clone 50 (ssRNA)
RNA: GGGAGGACGAUGCGGGUGGAGUGGAGGUAUAACGGCCGGUAGCGCAUCCCACUCGGGUCUGUGCUAGACGACUCGCCCGA
modifications: 2'-NH2 pyrimidines
In the data set with Complement C1q [9], B17 showed a Kd of 0.979 nM.

B18: E5c/E11 (ssRNA)
RNA: GGGAGGACGAUGCGGUCCGGCGCGCUGAGUGCCGGUUAUCCUCGUCAGACGACUCGCCCGA
modifications: 2'-F pyrimidines
Turning to B18, in the data set with Complement C5 [2], the Kd came out at 60 nM.

B19: C1q clone 47 (ssRNA)
RNA: GGGAGGACGAUGCGGGUGGAGCGGAGGUUUAUACGGCUGGUAGCUCGAGCUCCCUAACACGCGGUAGACGACUCGCCCGA
modifications: 2'-NH2 pyrimidines
Consider B19, for which, in the data set with Complement C1q [1], the binding result is recorded as “binds”.

B20: YL-14 (ssRNA)
RNA: GGGAGAUAAGAAUAAACGCUCAAGUACGACGCGGUCCCGUGCGUGGAGUGCGGGUUUACCUUCGUAUUCGACAGGAGGCUCACAACAGGC
modifications: 2'-F pyrimidines
With B20, in the data set with Complement C5 [7], binding was characterised by a dissociation constant (Kd) of 25 nM.
Take CGCCGCGGUCUCAGGCGCUGAGUCUGAGUUUACCUGCG (ssRNA, 2'-F pyrimidines; selected purines 50% 2'-OMe) [M3010]: the binding result in the data set with Complement C5 [10] was “binds”.
With CGCCGCGGUCUCGGGCGCUGAGUCUGAGUUUACCUGCG (ssRNA, 2'-F pyrimidines; selected purines 50% 2'-OMe) [M3020], in the data set with Complement C5 [10], the binding result is given as “binds”.
Regarding CGCCGCGGUCUCAGGCGCUGAGUCUGAGUUUACCUGCG (ssRNA, 2'-F pyrimidines; selected purines 50% 2'-OMe) [M3030], the binding result with Complement C5 [10] is given as “binds”.

B21: C1q clone 22 (ssRNA)
RNA: GGGAGGACGAUGCGGGCAUAGUGGGCAUCCCAGGGUUGCCUAACGGCAUCCGGGGUUGUUAUUGGCAGACGACUCGCCCGA
modifications: 2'-NH2 pyrimidines
Consider B21, for which the binding result with Complement C1q [1] was “binds”.

B22: A6 (ssRNA)
RNA: GGGAGGACGAUGCGGUCCGGCGCGCUGAGUGCCGGUUUAUCCUCGUCAGACGACUCGCCCGA
modifications: 2'-F pyrimidines
In turn, B22 displayed a Kd with Complement C5 [2] of 35 nM.

B23: C1q clone 36 (ssRNA)
RNA: GGGAGGACGAUGCGGGAGGAGUGGAGGUAAACAAUAGGCCGGUAGCGACUCCCACUAACAGCCUCAGACGACUCGCCCGA
modifications: 2'-NH2 pyrimidines
B23 displayed a dissociation constant (Kd) in the data set with Complement C1q [11] of 0.29 nM.

B24: C1q clone 12 (ssRNA)
RNA: B23 RNA with A17U, C39U, C55G, A60G
modifications: 2'-NH2 pyrimidines
On to B24, for which the binding result with Complement C1q [1] is “binds”.

B25: C1q clone 43 (ssRNA)
RNA: GGGAGGACGAUGCGGUUUCUCGGCCAGUAGUUUGCGGGUGGAGUGGAGGUAUAUCUGCGUCCUCGCAGACGACUCGCCCGA
modifications: 2'-NH2 pyrimidines
For B25, the binding result with Complement C1q [1] is “binds”.
